What was measured:
[1] = target: TGFβ1 (R&D systems) (UniProt P01137); test: cell-based or functional assay
[2] = target: IL2Rβ and common γ chain expressed on 32Dβ cells; test: cell-based or functional assay

Chain of UniProt P01137 (P01137 279-390 limits assumed): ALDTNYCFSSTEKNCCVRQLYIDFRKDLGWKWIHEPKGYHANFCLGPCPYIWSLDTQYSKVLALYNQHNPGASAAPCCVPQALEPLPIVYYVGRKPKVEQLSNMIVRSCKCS

IC50 for TGFβ1 activity in HEK-Blue TGFβ cells (QUANTI-Blue OD at 620-655 nM) [1] [nM] | EC50 of 32Dβ cell proliferation (WST1, absorbance at 450 nM) [2] [nM] | Substance
0.461 |  | TGFR-Fc (R&D Systems) (Fc fusion)
 | 0.0106 | recombinant IL-15 (from UniProt P40933 49-162) (ligand)
